Like-named read-outs stand apart in the source and are kept apart here. Square brackets hold non-standard residues; d marks the D form. Ends that are not written are not given here. F2Pmp = N[C@@H](Cc1ccc(C(F)(F)P(=O)(O)O)cc1)C(=O)O; pY = N[C@@H](Cc1ccc(OP(=O)(O)O)cc1)C(=O)O; AEEA = NCCOCCOCC(=O)O
Experiments:
[1] = target: T1, STEP32 C/S (human, UniProt P54829); assay: SPR 25C
T1 chain: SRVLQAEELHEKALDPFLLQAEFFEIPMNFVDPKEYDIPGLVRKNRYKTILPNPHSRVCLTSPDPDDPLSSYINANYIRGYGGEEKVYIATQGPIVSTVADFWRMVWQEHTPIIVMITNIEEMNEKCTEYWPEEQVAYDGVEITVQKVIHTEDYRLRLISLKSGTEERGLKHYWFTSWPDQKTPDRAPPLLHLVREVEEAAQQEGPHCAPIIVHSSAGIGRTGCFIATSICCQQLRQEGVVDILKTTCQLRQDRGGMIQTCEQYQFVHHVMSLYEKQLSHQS

[2] = target: T1, STEP32 C/S; assay: FP competition
[3] = target: T1, STEP32 C/S; assay: SPR 25C
[4] = target: T1, STEP32 C/S; assay: FP competition
[5] = target: T1, STEP32 C/S; assay: FP competition
[6] = target: T2, STEP32 WT (human, UniProt P54829); assay: SPR 25C
T2 chain: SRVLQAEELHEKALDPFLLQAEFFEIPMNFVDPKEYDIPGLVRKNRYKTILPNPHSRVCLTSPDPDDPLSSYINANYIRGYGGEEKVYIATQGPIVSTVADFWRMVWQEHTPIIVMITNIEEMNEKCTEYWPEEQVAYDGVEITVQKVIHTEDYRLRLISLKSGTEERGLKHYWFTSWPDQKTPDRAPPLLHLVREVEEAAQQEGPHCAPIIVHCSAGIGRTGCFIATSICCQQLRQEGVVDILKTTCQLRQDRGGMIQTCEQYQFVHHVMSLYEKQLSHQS

[7] = target: T2, STEP32 WT; assay: SPR 25C
[8] = target: T1, STEP32 C/S; assay: FP competition
[9] = target: T1, STEP32 C/S; assay: SPR 25C
[10] = target: T1, STEP32 C/S; assay: SPR 25C

Q: Which Kd [1] does the source give for [AEEA]FGYNV[pY]G [p3Ysh-6] here?
A: The Kd was 6130 nM.

Q: What about the Ki [2] of the same binder?
A: Its Ki is 6960 nM.

Q: And the Kd [3]?
A: Its Kd is 6130 nM.

Q: Which results are given for EGYNV[pY]GD [p-fin 5]?
A: Ki [4]: 760 nM; IC50 [5]: 3360 nM

Q: For NGYNV[pY] [p-fin 3], which Ki [4] is on record?
A: Its Ki is 2160 nM.

Q: What about the IC50 [5] of the same binder?
A: The IC50 was 8840 nM.

Q: For [AEEA]YNV[pY]G [p3Ysh-2], which Kd [1] is on record?
A: Its Kd is 3960 nM.

Q: What about the Ki [2] of the same binder?
A: Its Ki is 13100 nM.

Q: What about the Kd [3] of the same binder?
A: Its Kd is 3960 nM.

Q: Which results are given for EGYNV[F2Pmp] [3Ysh-3-F2Pmp]?
A: Kd [6]: 240 nM; Kd [7]: 242 nM

Q: With ATYKEGYNA[pY]G [p3YAla9] as the binder, how does the Ki [8] read?
A: Its Ki is 5940 nM.

Q: EGYNV[pY]E [p-fin 4] was tested. Which Kd [9] did it give?
A: The Kd was 90 nM.

Q: What about the Ki [4] of the same binder?
A: Its Ki is 360 nM.

Q: What about the Kd [3] of the same binder?
A: Its Kd is 88.4 nM.

Q: And the IC50 [5]?
A: The IC50 was 1860 nM.

Q: Which results are given for ATYKEGYNV[pY]G [p3Y]?
A: Kd [1]: 240 nM; Ki [8]: 2820 nM; Ki [2]: 2360 nM; Kd [3]: 232 nM

Q: With [AEEA]NS[pY]G [p3Ysh-4] as the binder, how does the Ki [2] read?
A: The Ki was 13700 nM.

Q: Does [AEEA]NS[pY]G [p3Ysh-4] bind [10]?
A: Result: no binding

Q: With ATYKEGYNV[F2Pmp]G [3Y-F2Pmp] as the binder, how does the Kd [6] read?
A: The Kd was 270 nM.

Q: What about the Kd [7] of the same binder?
A: The Kd was 268 nM.

Q: Which results are given for [AEEA]EGYNV[pY] [p3Ysh-3]?
A: Kd [1]: 60 nM; Ki [2]: 1640 nM; Ki [4]: 690 nM; Kd [3]: 53.1 nM; IC50 [5]: 2600 nM

Q: With GYNV[pY] [p-fin 1] as the binder, how does the Ki [4] read?
A: Its Ki is 1900 nM.

Q: And the IC50 [5]?
A: Its IC50 is 8010 nM.

Q: Which Ki [2] does the source give for [AEEA]YV[pY]G [p3Ysh-5] here?
A: The Ki was 5340 nM.

Q: With ATYKEAYNV[pY]G [p3YAla6] as the binder, how does the Ki [8] read?
A: Its Ki is 2310 nM.

Q: How did the Kd [1] turn out when [AEEA]NV[pY]G [p3Ysh-1] was run?
A: The Kd was 26000 nM.

Q: And the Ki [2]?
A: Its Ki is 4990 nM.

Q: And the Kd [3]?
A: Its Kd is 26000 nM.

Q: For AAYKEGYNV[pY]G [p3YAla2], which Ki [8] is on record?
A: Its Ki is 1620 nM.

Q: With ATYKEGYAV[pY]G [p3YAla8] as the binder, how does the Ki [8] read?
A: The Ki was 2470 nM.

Q: Which results are given for DGYNV[pY] [p-fin 2]?
A: Ki [4]: 1850 nM; IC50 [5]: 7150 nM

Q: How did the Ki [8] turn out when ATYKAGYNV[pY]G [p3YAla5] was run?
A: Its Ki is 4140 nM.

Q: Which Ki [8] does the source give for ATYKEGYNV[pY]A [p3YAla10] here?
A: Its Ki is 2710 nM.

Q: How did the Ki [8] turn out when ATYAEGYNV[pY]G [p3YAla4] was run?
A: Its Ki is 2530 nM.

Q: How did the Ki [2] turn out when [AEEA]FS[pY]G [p3Ysh-7] was run?
A: The Ki was 4570 nM.

Q: Does [AEEA]FS[pY]G [p3Ysh-7] bind [10]?
A: Result: no binding

Q: ATAKEGYNV[pY]G [p3YAla3] was tested. Which Ki [8] did it give?
A: Its Ki is 4810 nM.

Q: ATYKEGANV[pY]G [p3YAla7] was tested. Which Ki [8] did it give?
A: Its Ki is 4450 nM.
